Test [1] has as its target nuclear pore complexes (NPCs) in endoKap-depleted digitonin-permeabilized HeLa cells (human (endogenous in HeLa)). Description: permeabilized cell assay, confocal fluorescence microscopy.
A further test addresses T1, importin-5 (Imp5) (UniProt O00410 1-1097).
T1 sequence (looked up): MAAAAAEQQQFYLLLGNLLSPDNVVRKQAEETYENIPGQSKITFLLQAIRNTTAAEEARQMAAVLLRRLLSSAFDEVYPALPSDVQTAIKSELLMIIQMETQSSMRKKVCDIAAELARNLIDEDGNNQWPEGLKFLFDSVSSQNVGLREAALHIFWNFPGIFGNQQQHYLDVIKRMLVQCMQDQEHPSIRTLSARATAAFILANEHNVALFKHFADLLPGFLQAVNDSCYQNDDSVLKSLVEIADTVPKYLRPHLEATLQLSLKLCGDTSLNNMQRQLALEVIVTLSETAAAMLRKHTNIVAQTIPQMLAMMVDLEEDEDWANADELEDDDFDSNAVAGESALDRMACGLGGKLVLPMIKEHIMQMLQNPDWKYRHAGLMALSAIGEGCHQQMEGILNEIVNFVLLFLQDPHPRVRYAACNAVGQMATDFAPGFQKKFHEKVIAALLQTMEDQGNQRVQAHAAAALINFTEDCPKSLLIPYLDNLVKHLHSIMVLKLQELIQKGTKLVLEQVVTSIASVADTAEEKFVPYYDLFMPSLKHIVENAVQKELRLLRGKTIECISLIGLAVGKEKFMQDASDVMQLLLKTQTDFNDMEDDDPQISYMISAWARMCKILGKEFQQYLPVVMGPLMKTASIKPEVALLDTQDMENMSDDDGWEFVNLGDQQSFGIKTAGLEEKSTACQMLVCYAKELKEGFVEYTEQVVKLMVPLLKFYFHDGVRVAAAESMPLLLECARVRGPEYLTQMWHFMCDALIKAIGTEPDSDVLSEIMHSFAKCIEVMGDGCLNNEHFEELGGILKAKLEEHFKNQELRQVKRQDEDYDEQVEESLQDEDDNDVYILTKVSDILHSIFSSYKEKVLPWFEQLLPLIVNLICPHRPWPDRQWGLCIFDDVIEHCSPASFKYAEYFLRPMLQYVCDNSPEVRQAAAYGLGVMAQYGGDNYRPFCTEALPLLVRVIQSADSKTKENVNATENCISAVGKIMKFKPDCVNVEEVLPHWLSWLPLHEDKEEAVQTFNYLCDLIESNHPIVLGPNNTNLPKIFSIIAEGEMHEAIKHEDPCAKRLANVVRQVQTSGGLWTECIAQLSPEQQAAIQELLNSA
In words: SPR.

Test [2] addresses CRM1 (exportin 1/chromosomal maintenance 1) (UniProt O14980 1-1071). Description: SPR.

CRM1 (exportin 1/chromosomal maintenance 1), sequence (O14980 whole entry): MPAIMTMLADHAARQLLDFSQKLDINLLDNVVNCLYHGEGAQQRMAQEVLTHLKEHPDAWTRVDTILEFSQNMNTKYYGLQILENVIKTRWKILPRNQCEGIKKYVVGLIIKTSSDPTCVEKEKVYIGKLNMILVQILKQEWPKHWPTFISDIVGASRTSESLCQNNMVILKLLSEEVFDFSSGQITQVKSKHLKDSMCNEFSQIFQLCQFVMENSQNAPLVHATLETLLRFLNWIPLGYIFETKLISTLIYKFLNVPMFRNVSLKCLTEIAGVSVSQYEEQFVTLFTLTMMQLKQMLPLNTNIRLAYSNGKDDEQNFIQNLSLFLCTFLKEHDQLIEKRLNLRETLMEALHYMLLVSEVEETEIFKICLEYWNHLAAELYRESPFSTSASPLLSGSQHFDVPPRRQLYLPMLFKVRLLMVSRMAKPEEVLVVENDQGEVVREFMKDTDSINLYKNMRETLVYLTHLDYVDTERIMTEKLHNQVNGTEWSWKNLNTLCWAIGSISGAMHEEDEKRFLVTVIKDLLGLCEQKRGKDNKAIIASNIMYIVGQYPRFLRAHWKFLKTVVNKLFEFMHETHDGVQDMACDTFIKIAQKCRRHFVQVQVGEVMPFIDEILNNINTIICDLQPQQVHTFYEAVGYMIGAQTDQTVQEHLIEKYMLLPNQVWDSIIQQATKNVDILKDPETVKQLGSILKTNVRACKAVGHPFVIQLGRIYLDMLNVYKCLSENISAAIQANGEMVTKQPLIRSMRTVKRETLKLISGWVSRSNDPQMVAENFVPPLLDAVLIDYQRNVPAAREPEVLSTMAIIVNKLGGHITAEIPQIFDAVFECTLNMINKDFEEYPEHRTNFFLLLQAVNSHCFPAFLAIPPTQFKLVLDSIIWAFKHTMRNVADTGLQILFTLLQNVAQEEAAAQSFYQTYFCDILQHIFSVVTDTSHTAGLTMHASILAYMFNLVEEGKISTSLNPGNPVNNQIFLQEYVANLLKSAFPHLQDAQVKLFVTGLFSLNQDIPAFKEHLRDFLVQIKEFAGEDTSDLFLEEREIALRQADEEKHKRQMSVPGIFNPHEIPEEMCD

In the case of “Kapβ1–Alexa Fluor 488 (from UniProt Q14974 1-876) (natural protein)”, in test [1], the Kd amounted to 3100 nM and the relative occupancy with 10 µM exoImp5 was 72%.

As to “CRM1–Alexa Fluor 647 (from UniProt O14980 1-1071) (natural protein)”, in test [1], the K (D,NPC) in the presence of 10 µM exoKapβ1 worked out at 2.8 µM; the Kd worked out at 500 nM; the reduction of relative occupancy from the standalone value, with 10 µM exoKapβ1 stood at 51%; the relative occupancy with 10 µM exoImp5 turned out to be 59%.

B1: cNup153 (cysteine-tagged FG domain of human Nup153) (domain or fragment, UniProt P49790 874-1475, looked up)
chain: CESAKPGTKSGFKGFDTSSSSSNSAASSSFKFGVSSSSSGPSQTLTSTGNFKFGDQGGFKIGVSSDSGSINPMSEGFKFSKPIGDFKFGVSSESKPEEVKKDSKNDNFKFGLSSGLSNPVSLTPFQFGVSNLGQEEKKEELPKSSSAGFSFGTGVINSTPAPANTIVTSENKSSFNLGTIETKSASVAPFTCKTSEAKKEEMPATKGGFSFGNVEPASLPSASVFVLGRTEEKQQEPVTSTSLVFGKKADNEEPKCQPVFSFGNSEQTKDENSSKSTFSFSMTKPSEKESEQPAKATFAFGAQTSTTADQGAAKPVFSFLNNSSSSSSTPATSAGGGIFGSSTSSSNPPVATFVFGQSSNPVSSSAFGNTAESSTSQSLLFSQDSKLATTSSTGTAVTPFVFGPGASSNNTTTSGFGFGATTTSSSAGSSFVFGTGPSAPSASPAFGANQTPTFGQSQGASQPNPPGFGSISSSTALFPTGSQPAPPTFGTVSSSSQPPVFGQQPSQSAFGSGTTPNSSSAFQFGSSTTNFNFTNNSPSGVFTFGANSSTPAASAQPSGSGGFPFNQSPAAFTVGSNGKNVFSSSGTSFSGRKIKTAVRRRK
Turning to B1, the binding result with importin-5 (Imp5) is recorded as “binds”.

B2: cNup214 (cysteine-tagged FG domain of human Nup214) (domain or fragment, UniProt P35658 1809-2090, looked up)
chain: SPGFGQGGSVFGGTSAATTTAATSGFSFCQASGFGSSNTGSVFGQAASTGGIVFGQQSSSSSGSVFGSGNTGRGGGFFSGLGGKPSQDAANKNPFSSASGGFGSTATSNTSNLFGNSGAKTFGGFASSSFGEQKPTGTFSSGGGSVASQGFGFSSPNKTGGFGAAPVFGSPPTFGGSPGFGGVPAFGSAPAFTSPLGSTGGKVFGEGTAAASAGGFGFGSSSNTTSFGTLASQNAPTFGSLSQQTSGFGTQSSGFSGFGSGTGGFSFGSNNSSVQGFGGWRS
B2: in the test with importin-5 (Imp5), the binding result was “binds”. Also, binding in test [2] was put at a Kd of 110 ± 20 nM.

B3: cNup98 (cysteine-tagged FG domain of human Nup98) (domain or fragment, UniProt P52948 1-498, looked up)
chain: MFNKSFGTPFGGGTGGFGTTSTFGQNTGFGTTSGGAFGTSAFGSSNNTGGLFGNSQTKPGGLFGTSSFSQPATSTSTGFGFGTSTGTANTLFGTASTGTSLFSSQNNAFAQNKPTGFGNFGTSTSSGGLFGTTNTTSNPFGSTSGSLFGPSSFTAAPTGTTIKFNPPTGTDTMVKAGVSTNISTKHQCITAMKEYESKSLEELRLEDYQANRKGPQNQVGAGTTTGLFGSSPATSSATGLFSSSTTNSGFAYGQNKTAFGTSTTGFGTNPGGLFGQQNQQTTSLFSKPFGQATTTQNTGFSFGNTSTIGQPSTNTMGLFGVTQASQPGGLFGTATNTSTGTAFGTGTGLFGQTNTGFGAVGSTLFGNNKLTTFGSSTTSAPSFGTTSGGLFGNKPTLTLGTNTNTSNFGFGTNTSGNSIFGSKPAPGTLGTGLGAGFGTALGAGQASLFGNNQPKIGGPLGTGAFGAPGFNTTTATLGFGAPQAPVALTDPNASAAQQ
For the molecule B3, the binding result with importin-5 (Imp5) is “binds”.

B4: cNup62 (cysteine-tagged FG domain of human Nup62) (domain or fragment, UniProt P37198 1-240, looked up)
chain: MSGFNFGGTGAPTGGFTFGTAKTATTTPATGFSFSTSGTGGFNFGAPFQPATSTPSTGLFSLATQTPATQTTGFTFGTATLASGGTGFSLGIGASKLNLSNTAATPAMANPSGFGLGSSNLTNAISSTVTSSQGTAPTGFVFGPSTTSVAPATTSGGFSFTGGSTAQPSGFNIGSAGNSAQPTAPATLPFTPATPAATTAGATQPAAPTPTATITSTGPSLFASIATAPTSSATTGLSLC
With B4, in the test with importin-5 (Imp5), the binding result is listed as “binds”. In test [2], this molecule yielded a Kd of 2860 ± 380 nM.

(Values after publication PMC8932525 (The Journal of Cell Biology, 2022).)
